From a protein production outcome set (Wang et al. 2014)

assay: label from the status in PepcDB records

Row | Sequence | protein production
1 | MFEGERHMFDVQREELIWGDRKLVLETGKTARQADGSVVATYGETTVLATVVAGKEPKAGIDFLPLTVNYQERAYAAGRIPGGYFKREGRPSEKETLVSRLIDRPIRPLFVEGWRNDTQVVVTVLSHDLENDPDIVAMVAASAALTLSGVPFMGPIGAARVGYLNGGYKLNPLVTEIAESTLDLVVAGTQDAVLMVESEAKELSEDVMLGAVMFGHKHFQPVIEAIIRLAEKAAKEPRDFTPPENADVEAAVLAVAETELREAYKKTVKQERYAAVDAVKAKVVAALCPAEGEQKFSPEKVKAAFKEAQSKVVRWNILDTGSRIDGRDVKTVRSIVSEVGVLPRAHGSSLFTRGETQALVVATLGTGEDEQFIDALEGTYKERFLLHYNFPPYSVGETGRMGSPGRREIGHGKLAWRAIRPVLPPAHEFPYTIRVVSEITESNGSSSMASVCGGSLSLMDAGVPLRRPVAGIAMGLILEGERFAVLSDILGDEDHLGDMDFKVAGSEEGITSLQMDIKIAGITEEIMKIALAQAKDGRAHILGEMSKALTAARPELGEYAPRIETMQIPTDKIRDVIGTGGKIIREIVEKTGAKINIEDTGIVKIASSDGKAIKAAYNWIRSIVAEPEAGTIYDGTIVKIMEFGAFVNFFGAKDGLVHISELAAQRVAKVGDVVKEGQKVKVKFLGADERGKIRLSMKVVDQETGEDLTEKLKAERAERGEPEREERSDRGDRGDRGPRRDRGERRRESSGE | failed
2 | MFEKQFNHRTLETSLGPVEIEGPVTSQILATYKLDPGLTAFRQPAEQHEALVEIAALEEGRIIIARQGNDIIGYVTFLYPDPYETWSEGNNPYILELGAIEVAARFRGQQIGKKLLEVSMLDPAMEHYLILTTEYYWHWDLKGSGLSVWDYRKIMEKMMNHGGLVFFPTDDPEIASHPANCLMARIGKHVAPEVVAHFDALRLRRRFMYD | not failed
3 | MFESAEVGHSIDKDTYEKAVIELREALLEAQFELKQQARFPVIILINGIEGAGKGETVKLLNEWMDPRLIEVQSFLRPSDEELERPPQWRFWRRLPPKGRTGIFFGNWYSQMLYARVEGHIKEAKLDQAIDAAERFERMLCDEGALLFKFWFHLSKKQLKERLKALEKDPQHSWKLSPLDWKQSEVYDRFVHYGERVLRRTSRDYAPWYVVEGADERYRALTVGRILLEGLQAALATKERAKRQPHAAPLVSSLDNRGLLDSLDLGQYLDKDAYKEQLAAEQARLAGLIRDKRFRQHSLVAVFEGNDAAGKGGAIRRVTDALDPRQYHIVPIAAPTEEERAQPYLWRFWRHIPARRQFTIFDRSWYGRVLVERIEGFCAPADWLRAYGEINDFEEQLSEYGIIVVKFWLAIDKQTQMERFKEREKTPYKRYKITEEDWRNRDKWDQYVDAVGDMVDRTSTEIAPWTLVEANDKRFARVKVLRTINDAIEAAYKKDK | not failed
4 | MFGFFSPAPAIPRLPKDKVSSAYKAYRIRMFLMIFIGYTGYYLVRKNFAVASPYLIDNYGFSKTQIGLISMGLAVSYGLSKFILGNLSDKSNVKKFICFGLIASSVLSVLMGFARTVPIFLILMVFNGFFQGMGAPPCSIVLGKWFSQKERGLKMGIWNTSHNIGGGLIAPIATLCLLVFGQNHFQSIFFVPAIICTIVALFCYVIGADTPASVGLPPVEEYRNDYPEVKAEVNPTTLSSKEIMVKYVLKNKYVWYLALANIFVYLIRQGVVNWIPIYLKESKGFSAANANWAMFLFEYAAIPASILLGWLSDVVFKGKRAPLSILCMIGVIFATVAYWQTSSTLVTMISVAFIGCFIYGPQLLIGMNLIDVVPNFAVGSATGFSGLCGYLLGEFMADFVLGMIADSFGWNGAFIFIIVGAFIALLLLALTLKIKKNPQVEDKIA | failed
5 | MFGGAKGGHFGVPPAGYSGAVPQSEAGTKAGPAGGRPADTMWRVRCKAKGGTHLLQGLSSRTRLRELQGQIAAITGIAPGSQRILVGYPPECLDLSDRDITLGDLPIQSGDMLIVEEDQTRPKASPAFSKYGAPSYVREALPVLTRTAVPADNSCLFTSVYYVVEGGVLNPACAPEMRRLIAQIVASDPVLYSEAILGKTNEDYCDWIRRDDTWGGAIEISILSKFYQCEICVVDTQTVRIDRFGEDAGYTKRVLLIYDGIHYDPLQRNFPDPDTPPLTIFSSNDDIVLVQALELADEARRKRQFTDVNRFTLRCMICQKGLTGQAEARDHARETGHTNFGEV | failed
6 | MFGRCVRVKENMTYTEFVRTLSEAFSLKSTEINPIISYWMPGEMLVMIDTKRLPVYIDSQVGLNTFFMIRGRYPSLNLFVSFITTVKTLENNVSRTHGDDAESDRVSNVDENNEAVDEQDDVEDDKTDEDEEEGDNEDGDGYDDYQGDDGSMGGSTLDPTIDGSESNGEDYDYNKWNDVIVEEYGIGNVEENVILIPGEFSRLLAECTYTS | failed
7 | MFGRDGRLKESRVQKPERQQRLFGLSTPLRSAVIPPLSAARWLLVLIVAAGVYFFHGFLFPVLAALVIAFASWPLYQRLLAGVGGNRTIAATLAILFILAFLVIPIALAGTYAINEVREWVGWAIETNRHGAVTPHWIATMPVVGDWLNEQWTTNFGHPGGIGELIQLISGANIGSIYRGALAAGGSAFGLLLTLLFMMIALFFAYRDGEHFAGQVDRLGERILPTRWERISRVVPATISSTVTGMTVIAIGEGLVLGIAYWLAGVPSPVTLGALTGVMALIPGGAPLSFTLVSIYLAASGSPMAGLALFLWGAVELFIVDKTLRPKLVGGPIKLPFLPTFFGLIGGVKTMGFLGLFIGPVLMALLVAIWREWLREVELVDELAAGSAAEIEATPQIEVLPEPGVAKKARA | failed
8 | MFHAAFMEERVFSDRGSMRNACSSIEYDGCRQGQSGPLLEEKEVKRKLFGALALVAMLAAPALAEAATRGFATANVNMRSGPSTAYPAVVVIPVGAPLTVHGCLSDTPWCDVSFVNGRGWVAGRYIQTTFRQNRVYVEPRYYRDLGVPVITFEAGRYWDRYYRDRDFYRERDRWRRPPPSGGYWNAPPPSAGWDRPRPRDDWRDGRRDDGRRDEWRDPRQGGPNDGRWERRYGDWNQGDRNQDRPRRDDDRRRWEDENRDRNRDRDSNRDGNRDRPQNQYDGQRGQLEGQPRPPAPAPDAPLQGCIIGSPGCAQRLEHHHHHH | not failed
9 | MFHKALWMRQWKQGKYIILLFWLTSLYQLPYKYYQEAQTQLKLSKMKFGDYTYYYSYYFQTSDGAVFFQGATLIALACLLIGWERNNQSNDFLFSMPFKRKDIFLTKWWLGVLNIITVQIICLISMYGIKNMSFHNEYQTFAPFYSYFLYATVVLIAIYTFALFIGTITGHIFSQSILTIILLFLPYGFGLLISGFIYSHTQWSVDAMGEIEYHTHEYLQHIGIISPLEYFSITYDYHPIETFDDYGNKLPSVSQDNPTERISVPSPWTLLTPFSYIITFLSIATFLYTRTPNEQSGKILLFPNLQKWFIICTVLCFGLLGGRILGGRDALLSYYVGFFLFATISYFIFTRLLKLKFAFAGK | failed
10 | MFHLIRWQDIADIIIMSFLAYRLYSWFRHTRAMQVLIGLGILAGVYFVTRNLGLFMTSWILQELGTVLFVLIIVVFQAEIRQALYRFSLLRTFIGRQEGGGELDLAELGRTVFGLARERTGALIVLQRQEALDDYLLHGVKVDGLPSSHLLGSIFRNGTPLHDGAVIIKDGRVSQASCHLPLSMKTELPQNFGTRHRAGIGLSERSDAVVIIVSEERGEVGMALAGEYRKIASPEEFAEVIQGLLYPQRPENVAFTLRQRLLRNLVPKIVTTLIVIAGWLVVTTKEGGIFTVTVPIKFHNLPPRSVLVKSVPESVEVQLKVFTSLIPSPRQLDLVADLNLAGVHDGVNSLAVKDDDLNLPLGVVVTGINPPMVKVTIAGKERKQLRVRPKLTGQLPGRAKLRSVTADPDTVVVEGPGHLLEGLESLPTETVDLAGLRRGGVVERRVVSPSPQIRVLRDEPVRVVVVTSVK | failed
11 | MFIASFITGPFQTNCYLLAREQGSECVIVDLGMGAEEFLGDALRTHHLVPVAIAVTHGHIDHIGSARQVGDEYGIPVLCPRDDRHLLSDPMAGLSDFARPLIEQWYGSTTLREPEQVVDVEPFSHHQFANLDLEFLHAPGHTPGCSMIRTIDAEFGPIVMSGDVVFAGSIGRTDMPGGDPAQMSYSLSDVVWSLDDSTHVLPGHGGPTTMANERLTNPFLGRR | failed
12 | MFIERLVALLLLFAGEFAYLRIADRFNIIDRPNQRSSHKKNVLRGGGIIFLLGVWMYAFLNTTGYPLFIGGMTLIASVAFIDDVCSLSPRFRFFVQFVAMFLLLQEAGMLVENKVWFLLPTMILGVCIINAYNFMDGINGMTGAFSLMVLFTFWLLNREMAFIDATLIELLMISALVFCFFNFRNQAICFAGDVGSVGMAYCVIFILLKLVLFTGNVTYLLFLVVYGIDTVLTIFHRLLLHENLLQPHRKHLFQLLANEGGHSHVTVSITYVLLQLAISLGYIYLPIDKWLYSVIVTIGLVTAYLIIERKLYPKHKEYLKSLSCAVMDEGYSEKCLRNEN | failed
13 | MFIGIYNRSVIVTYMGIASAMVGMYLADKHDIRYAILCLVIAGVCDLFDGKIARMCKRTEDEKLFGIQLDSLADVICFSALPISIFYGLGLNKWYHVVIYTAFTLAAITRLGFFNIKVMDSNRDKPVDYYSGLPVTCSAMIFPLFWLLSFCLDRHIFLLIYTIIIAVVAFLFVANIKIKKPKGIAYGVFVVLAVLMSLGIIFIGV | failed
14 | MFIIIGDLIAFVISVLVTLIIASVPVWVAAKIVAKRSTFGQAVAATLLSLIIFFILLFVFSIFTPFIGGIFGFIGALWVFRKVYNIGWVDSLALTIIAIFIAIMIYIILGAFLFPVIHTSMIHEHAVVTSIIV | failed
15 | MFIPAAQSAYRTLRKTQPRVRLNAIFKNGYSSKVEYKPIRSVLVANRGEIAIRVFRACTELGIKSVAVYSEQDKMHMHRQKADESYIVGKGLPPVEAYLNIPELIRVCKENDVDAVHPGYGFLSERSDFAQAVIDAGLRFIGPSPEVVQKMGDKVAARVAAIEAGVPIVPGTDGPVTTKEEALEFCKKHGLPVIFKAAYGGGGRGMRVVRKMEDVEESFQRASSEAKAAFGNGAMFIEKFIERPRHIEVQLLGDKAGNVVHLYERDCSVQRRHQKVVEIAPAPRLPIEIRDKMTEAAVRLARHVGYENAGTVEFLCDESGNFYFIEVNARLQVEHTVTEEITGIDLVQSQIRVAEGMTLPELGYTQDKIVPRGYAIQCRVTTEDPANDFQPNTGRLEVFRSGEGMGIRLDSASAYAGAIISPYYDSLLVKVISHASDLQSSASKMNRALREFRIRGVKTNIPFLLNVLENQKFLHGVLDTYFIDEHPQLFKFKPSLNRAQKLLNYMGEVLVNGPQTPLATTLKPALVSPHVPEVPLDLSPEAIEREERGEAKVTEPPKGLREVLVCEGPEAFAKEVRNRKELLLMDTTFRDAHQSLLATRVRSHDLLKISPYVTHKFNNLYSLENWGGATFDVALRFLHECPWERLEEMRKRIPNIPFQMLLRGANAVGYTSYPDNVVYKFCELAVQTGMDIFRVFDSLNYLPNLILGMEAAGKAGGVVEAAISYTGDVSDPKRTKYDLKYYTNLADELVKAGTHVLCIKDMAGLLKPESARLLITAIRDKHPDIPIHIHTHDTSGAGVASMLACANAGADVVDVAVDSMSGMTSQPSMGAVVASLQGTPLDTNLDLRTVSEYSAYWEQTRTLYAPFECTTTMRSGNADVYLNEIPGGQYTNLQFQAFSLGLGDFFEDVKKAYREANLLLGDIIKVTPSSKVVGDLAQFMVQNDLTADQVLERAEELSFPKSVVEYLQGSIGIPHGGFPEPLRSRVLKDMPRIEGRPGAELKDLDFDKLKKELQESHTCVTNRDVMSAALYPQVTNDFLNFREKYGPVDKLDTRIFLTGPKVGEEFDVPLERGKTLSVKALAVSADLKPNGIREVFFELNGQLRAVHILDKEAVKEIHVHPKANKSNKSEVGAPMPGTVIDIRVKVGDKVEKGQPLVVLSAMKMEMVVQSPLAGVVKKLEIANGTKLEGEDLIMIIE | failed
16 | MFIREEEQMKRMIITIGRQSGSSGRKVGELLAERLSLPLYGKAELQKIAEGTDDYEEVQAFYEEEPVNSLLYAIAMSQFEQEVGRIPFQRIRELASKESCIIIGRCAGHIFREDPEAVRVFIHADPKIRVQRIMEREGLSETKAKKFLEDTDSRRASFHKYYTKQEWGLAQDYELCLDSGVLGIEGTVEVLTEYLRFRGFLGNE | failed
17 | MFISCIILINYSYIFGKNIRYLYEFKVIWKSNNSLILFFIEFDRNFMTIKFKLFKCRRLNILIELINIENYFRNGNILCFIFNIPSIPRNLLINVFLTSSNKVNISIQGLKLEHHHHHH | failed
